Some results are limits rather than exact numbers.

In assay [1] the target is recombinant human MMP-9/NGAL complex (human) (UniProt P14780). In words: ELISA (Quantikine, R&D Systems). For orientation: An ELISA detects its analyte on a solid surface through an enzyme-linked reagent.
Assay [2] deals with human CNP-53 (AA 51-103) (human) (UniProt P23582). In words: radioimmunoassay.
Assay [3] concerns the target human CNP-22 (AA 82-103) (human) (UniProt P23582). In words: radioimmunoassay.
In assay [4] the target is ANP (Homo sapiens (Human)) (UniProt P01160). In words: radioimmunoassay, competition with I125-labeled CNP.
Assay [5] has as its target adrenomedullin (Homo sapiens (Human)) (UniProt P35318). The assay is described as above.
The target in another assay is endothelin. Described as above.
Assay [6] deals with human CNP-53 (AA 51-103) (human) (UniProt P23582). Described as above.
The target of assay [7] is BNP (Homo sapiens (Human)) (UniProt P16860). The description is as above.

Regarding “NGAL enzyme-linked immunoassay (Quantikine ELISA, R&D Systems) (tool reagent)”, the cross-reactivity in assay [1] was 0.3%.

On to “antibody that detects human CNP-22, non-equilibrium radioimmunoassay kit from Phoenix Pharmaceutical (Example 2) (tool reagent)”, for which the cross-reactivity in assay [2] stood at 59%.

“antibody that detects human CNP-53, non-equilibrium radioimmunoassay kit from Phoenix Pharmaceutical (tool reagent)” displayed a cross-reactivity in assay [3] of 100%.

For the substance “antibody to human CNP-22 of the non-equilibrium radioimmunoassay kit from Phoenix Pharmaceutical (Example 1) (tool reagent)”, the cross-reactivity in assay [4] was less than 1%; in assay [5], less than 1%; with endothelin, less than 1%; in assay [6], 97%; in assay [7] it was less than 1%.

The values above are taken from patent publication US20150293119A1.
